Numbering of substitutions follows the chain as printed.
Key:
[1] = molecular target: soluble human C3b (human) (UniProt P01024)
human C4b (human) [2] = molecular target: T1, human C4b (human) (UniProt P0C0L5)
T1 sequence: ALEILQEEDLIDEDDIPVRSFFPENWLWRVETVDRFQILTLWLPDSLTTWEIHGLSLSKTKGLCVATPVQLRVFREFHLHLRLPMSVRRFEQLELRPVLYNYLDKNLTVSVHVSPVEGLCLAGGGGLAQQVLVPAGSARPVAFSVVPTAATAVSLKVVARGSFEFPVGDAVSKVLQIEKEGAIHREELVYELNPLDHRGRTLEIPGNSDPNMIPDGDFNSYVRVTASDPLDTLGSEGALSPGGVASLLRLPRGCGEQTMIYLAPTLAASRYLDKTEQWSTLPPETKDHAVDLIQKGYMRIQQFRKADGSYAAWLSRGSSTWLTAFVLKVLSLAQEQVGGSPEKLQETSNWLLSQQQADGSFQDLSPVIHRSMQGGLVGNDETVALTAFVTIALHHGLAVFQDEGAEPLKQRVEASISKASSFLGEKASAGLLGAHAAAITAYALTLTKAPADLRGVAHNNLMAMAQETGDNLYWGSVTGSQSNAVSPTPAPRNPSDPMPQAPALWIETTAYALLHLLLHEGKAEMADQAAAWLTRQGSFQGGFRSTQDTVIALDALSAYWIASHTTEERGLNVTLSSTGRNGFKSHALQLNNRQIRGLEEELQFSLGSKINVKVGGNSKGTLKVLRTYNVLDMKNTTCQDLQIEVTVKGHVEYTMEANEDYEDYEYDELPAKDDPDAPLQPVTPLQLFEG

human C4b (human) [3] = molecular target: T2, human C4b (human) (UniProt P0C0L4)
T2 sequence: T1 sequence with T151A, G317D, L364P, S365C, I368L, H369D, S420N, A451V, R454L, A530S

[4] = molecular target: soluble human C3b (human) (UniProt P01024); remark: listed apart in the source
human C4b (human) [5] = molecular target: T2, human C4b (human); remark: listed apart in the source
human C4b (human) [6] = molecular target: T1, human C4b (human); remark: listed apart in the source

## CFI-HSA variant D425K; E457G; E461Q; N531G (enzyme)
[1]
  iC3b Screen Ref Fold (fold of CFI-HSA wild type): 2.07
  iC3b Screen Ref Fold (fold relative to CFI-HSA wild type): 0.09
Human C4b (human) [2]
  C4b Screen Ref Fold (fold relative to CFI-HSA wild type): 3.28
Human C4b (human) [3]
  C4b Screen Ref Fold (fold of CFI-HSA wild type): 4.26
[4]
  iC3b EC50: 2.5 nM
Human C4b (human) [5]
  C4c EC50 (nM): 6 nM

## CFI-HSA variant D425K; E530F (enzyme)
[1]
  iC3b Screen Ref Fold (fold of CFI-HSA wild type): 2.17
Human C4b (human) [3]
  C4b Screen Ref Fold (fold of CFI-HSA wild type): 0.08
[4]
  iC3b EC50: 5.8 nM
Human C4b (human) [6]
  C4c EC50: > 1000 nM

## CFI-HSA variant D425K; E530F; E457G; E461Q; N531G (enzyme)
[1]
  iC3b Screen Ref Fold (fold of CFI-HSA wild type): 1.08
Human C4b (human) [3]
  C4b Screen Ref Fold (fold of CFI-HSA wild type): 4.4
[4]
  iC3b EC50: 3.4 nM
Human C4b (human) [6]
  C4c EC50: 6.4 nM

## CFI-HSA variant D425K; P558S (enzyme)
[1]
  iC3b Screen Ref Fold (fold of CFI-HSA wild type): 2.11
Human C4b (human) [3]
  C4b Screen Ref Fold (fold of CFI-HSA wild type): 0.77
[4]
  iC3b EC50: 7 nM
Human C4b (human) [6]
  C4c EC50: 153 nM

## CFI-HSA variant D425K; Y408M (enzyme)
[1]
  iC3b Screen Ref Fold (fold of CFI-HSA wild type): 1.88
Human C4b (human) [3]
  C4b Screen Ref Fold (fold of CFI-HSA wild type): 0.19
[4]
  iC3b EC50: 9.4 nM
Human C4b (human) [6]
  C4c EC50: > 1000 nM

## CFI-HSA variant D425K; Y408M; F537K (enzyme)
[1]
  iC3b Screen Ref Fold (fold of CFI-HSA wild type): 1.52
Human C4b (human) [3]
  C4b Screen Ref Fold (fold of CFI-HSA wild type): 0.09
[4]
  iC3b EC50: 10.8 nM
Human C4b (human) [6]
  C4c EC50: > 1000 nM

## CFI-HSA variant D425K; Y408M; K504R (enzyme)
[1]
  iC3b Screen Ref Fold (fold of CFI-HSA wild type): 1.57
Human C4b (human) [3]
  C4b Screen Ref Fold (fold of CFI-HSA wild type): 0.1
[4]
  iC3b EC50: 14.6 nM
Human C4b (human) [6]
  C4c EC50: > 1000 nM

## CFI-HSA variant D425R; E530F; E457G; E461Q; N531G (enzyme)
[1]
  iC3b Screen Ref Fold (fold of CFI-HSA wild type): 0.99
Human C4b (human) [3]
  C4b Screen Ref Fold (fold of CFI-HSA wild type): 4.48
[4]
  iC3b EC50: 3.2 nM
Human C4b (human) [6]
  C4c EC50: 6.2 nM

## CFI-HSA variant D425R; E530F; P558G; E457G; E461Q; N531G (enzyme)
[1]
  iC3b Screen Ref Fold (fold of CFI-HSA wild type): 0.87
Human C4b (human) [3]
  C4b Screen Ref Fold (fold of CFI-HSA wild type): 4.13
Human C4b (human) [6]
  C4c EC50: 5 nM

## CFI-HSA variant D425R; P558S; E457G; E461Q; N531G (enzyme)
[1]
  iC3b Screen Ref Fold (fold of CFI-HSA wild type): 1.29
Human C4b (human) [3]
  C4b Screen Ref Fold (fold of CFI-HSA wild type): 4.41
[4]
  iC3b EC50: 4 nM
Human C4b (human) [6]
  C4c EC50: 4.6 nM

## CFI-HSA variant E457G; E461Q; N422K (enzyme)
[1]
  iC3b Screen Ref Fold (fold of CFI-HSA wild type): 2.37
Human C4b (human) [3]
  C4b Screen Ref Fold (fold of CFI-HSA wild type): 3.61
[4]
  iC3b EC50: 3.5 nM
Human C4b (human) [6]
  C4c EC50: 17.2 nM

## CFI-HSA variant E457G; E461Q; N422K; T377G (enzyme)
[1]
  iC3b Screen Ref Fold (fold of CFI-HSA wild type): 1.74
Human C4b (human) [3]
  C4b Screen Ref Fold (fold of CFI-HSA wild type): 4.28
[4]
  iC3b EC50: 2.2 nM
Human C4b (human) [6]
  C4c EC50: 5 nM

## CFI-HSA variant E457G; N422K; T377G (enzyme)
[1]
  iC3b Screen Ref Fold (fold of CFI-HSA wild type): 2.99
Human C4b (human) [3]
  C4b Screen Ref Fold (fold of CFI-HSA wild type): 4.25
[4]
  iC3b EC50: 3.5 nM
Human C4b (human) [6]
  C4c EC50: 7.5 nM

## CFI-HSA variant E461Q; N422K; T377G (enzyme)
[1]
  iC3b Screen Ref Fold (fold of CFI-HSA wild type): 2.75
Human C4b (human) [3]
  C4b Screen Ref Fold (fold of CFI-HSA wild type): 3.96
[4]
  iC3b EC50: 3.6 nM
Human C4b (human) [6]
  C4c EC50: 7.9 nM

## CFI-HSA variant E530F; P558S; E457G; E461Q; N531G (enzyme)
[4]
  iC3b EC50: 4.8 nM
Human C4b (human) [6]
  C4c EC50: 9.1 nM

## CFI-HSA variant K504R; D425R; E530F; E457G; E461Q; N531G (enzyme)
[1]
  iC3b Screen Ref Fold (fold of CFI-HSA wild type): 1.18
Human C4b (human) [3]
  C4b Screen Ref Fold (fold of CFI-HSA wild type): 4.2
Human C4b (human) [6]
  C4c EC50: 7.4 nM

## CFI-HSA variant K504R; D425R; P558G; E457G; E461Q; N531G (enzyme)
[1]
  iC3b Screen Ref Fold (fold of CFI-HSA wild type): 1.58
Human C4b (human) [3]
  C4b Screen Ref Fold (fold of CFI-HSA wild type): 4.14
Human C4b (human) [6]
  C4c EC50: 4.8 nM

## CFI-HSA variant K504R; E530F; P558G; E457G; E461Q; N531G (enzyme)
[1]
  iC3b Screen Ref Fold (fold of CFI-HSA wild type): 1.77
Human C4b (human) [3]
  C4b Screen Ref Fold (fold of CFI-HSA wild type): 3.96
Human C4b (human) [6]
  C4c EC50: 8.2 nM

## CFI-HSA variant N422K; E461Q (enzyme)
[1]
  iC3b Screen Ref Fold (fold of CFI-HSA wild type): 2.67
Human C4b (human) [3]
  C4b Screen Ref Fold (fold of CFI-HSA wild type): 2.54
[4]
  iC3b EC50: 4.1 nM
Human C4b (human) [6]
  C4c EC50: 51.1 nM

## CFI-HSA variant N531G; E457G; N422K; T377G (enzyme)
[1]
  iC3b Screen Ref Fold (fold of CFI-HSA wild type): 1.28
Human C4b (human) [3]
  C4b Screen Ref Fold (fold of CFI-HSA wild type): 4.39
[4]
  iC3b EC50: 3.2 nM
Human C4b (human) [6]
  C4c EC50: 4.2 nM

## CFI-HSA variant N531G; E457G; T377G (enzyme)
[1]
  iC3b Screen Ref Fold (fold of CFI-HSA wild type): 1.54
Human C4b (human) [3]
  C4b Screen Ref Fold (fold of CFI-HSA wild type): 4.33
[4]
  iC3b EC50: 4.5 nM
Human C4b (human) [6]
  C4c EC50: 2.9 nM

## CFI-HSA variant N531G; E461Q; N422K (enzyme)
[1]
  iC3b Screen Ref Fold (fold of CFI-HSA wild type): 1.81
Human C4b (human) [3]
  C4b Screen Ref Fold (fold of CFI-HSA wild type): 4.01
[4]
  iC3b EC50: 3.7 nM
Human C4b (human) [6]
  C4c EC50: 7.2 nM

## CFI-HSA variant N531G; E461Q; N422K; T377G (enzyme)
[1]
  iC3b Screen Ref Fold (fold of CFI-HSA wild type): 1.7
Human C4b (human) [3]
  C4b Screen Ref Fold (fold of CFI-HSA wild type): 4.24
[4]
  iC3b EC50: 2.4 nM
Human C4b (human) [6]
  C4c EC50: 5 nM

## CFI-HSA variant N531G; E461Q; T377G (enzyme)
[1]
  iC3b Screen Ref Fold (fold of CFI-HSA wild type): 2.28
Human C4b (human) [3]
  C4b Screen Ref Fold (fold of CFI-HSA wild type): 4.1
[4]
  iC3b EC50: 4.9 nM
Human C4b (human) [6]
  C4c EC50: 5 nM

## CFI-HSA variant N531G; N422K; T377G (enzyme)
[1]
  iC3b Screen Ref Fold (fold of CFI-HSA wild type): 2.74
Human C4b (human) [3]
  C4b Screen Ref Fold (fold of CFI-HSA wild type): 3.88
[4]
  iC3b EC50: 3.3 nM
Human C4b (human) [6]
  C4c EC50: 6.8 nM

## CFI-HSA variant R557K; N531M (enzyme)
[1]
  iC3b Screen Ref Fold (fold of CFI-HSA wild type): 0.41
Human C4b (human) [3]
  C4b Screen Ref Fold (fold of CFI-HSA wild type): 2.93
Human C4b (human) [6]
  C4c EC50: 124 nM

## CFI-HSA variant Y408Q (enzyme)
[1]
  iC3b Screen Ref Fold (fold of reference): 0.84
Human C4b (human) [3]
  C4b Screen Ref Fold (fold of reference): 0.05
[4]
  iC3b EC50: 49.1 nM
Human C4b (human) [5]
  C4c EC50 (nM): 530 nM

## CFI-HSA variant Y563H (enzyme)
[1]
  iC3b Screen Ref Fold (fold of CFI-HSA wild type): 0.73
  iC3b Screen Ref Fold (fold of reference): 1.4
Human C4b (human) [2]
  C4b Screen Ref Fold (fold of CFI-HSA wild type): 0.65
Human C4b (human) [3]
  C4b Screen Ref Fold (fold of reference): 1.03
[4]
  iC3b EC50: 24.6 nM
Human C4b (human) [5]
  C4c EC50 (nM): 855 nM

— patent publication US20230038638A1, “COMPLEMENT FACTOR I-RELATED COMPOSITIONS AND METHODS” (published 2023)
